We go through one molecule from article PMC7438494, “Bedaquiline inhibits the yeast and human mitochondrial ATP synthases” (Communications Biology, 2020).

Series [1] concerns the molecule itself. The series is described as follows: cryo-EM structure; purified yeast F1Fo reconstituted in nanodiscs (POPC and cardiolipin, 12% by weight), incubated with BDQ (30 uM on ice 30 min, or 5 uM at room temperature 10 min); reconstruction focused on Fo at 4.2 A, whole F1Fo at 3.9 A.
Series [2] deals with T1, subunit-a of the yeast mitochondrial F1Fo ATP synthase (S. cerevisiae, UniProt P00854 11-259).
T1 construct: ATP synthase subunit a (Fo sector), S. cerevisiae mitochondrial; The His6 tag of strain USY006 is on ATP2 (beta subunit), not on this chain; also called a-subunit
T1 sequence (looked up): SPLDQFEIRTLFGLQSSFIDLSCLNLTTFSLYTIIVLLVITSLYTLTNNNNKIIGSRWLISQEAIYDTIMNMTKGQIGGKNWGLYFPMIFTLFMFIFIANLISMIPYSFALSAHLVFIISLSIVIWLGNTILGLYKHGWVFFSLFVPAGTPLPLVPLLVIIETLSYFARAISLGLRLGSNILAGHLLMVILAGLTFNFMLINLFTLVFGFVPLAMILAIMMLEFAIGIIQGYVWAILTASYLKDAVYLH
The description is as above. The following applies: both partners purified.

B1: subunit-c of the yeast mitochondrial F1Fo ATP synthase (c10-ring) (natural protein, S. cerevisiae, UniProt P61829 1-76, looked up)
chain: MQLVLAAKYIGAGISTIGLLGAGIGIAIVFAALINGVSRNPSIKDTVFPMAILGFALSEATGLFCLMVSFLLLFGV
notes: ATP synthase subunit c (subunit 9, Fo sector), S. cerevisiae mitochondrial; as modelled in PDB 6WTD (chains Q and R are two of the ten copies; initial model PDB 6CP7); also called c-subunit; c-ring; copies: 10
As to B1, the stoichiometry N (as a rule, the number of molecules, sites or subunits per partner or assembly) in series [1] is 10. Also, the binding result in series [2] was “binds”.
